Test results taken from WO2012003472A1 (dated 2012).

What was measured:
[1] = target: human Notch1 displayed on the surfaces of cells (human, UniProt P46531 19-2555); experiment: cell-based or functional assay
[2] = target: T1, recombinant human Notch 1/Fc fusion protein (rhNotch1-Fc) (human, UniProt P46531 19-526); experiment: SPR (Biacore T100), antibody captured on anti-mouse IgG, rhNotch1-Fc as analyte, 25°C
T1 construct: Bought protein; also called rhNotchl-Fc; R&D Systems Cat. No. 3647-TK-050; not shown: Fc part

rhNotch2-Fc = target: T2, rhNotch2-Fc (human, UniProt Q04721 26-530); experiment: BLI (Octet QK), Notch-Fc on anti-human-Fc sensors
T2 construct: Bought protein; also called human Notch2 protein; R&D Cat. No. 3735-NT-050; not shown: Fc part
T2 sequence (looked up): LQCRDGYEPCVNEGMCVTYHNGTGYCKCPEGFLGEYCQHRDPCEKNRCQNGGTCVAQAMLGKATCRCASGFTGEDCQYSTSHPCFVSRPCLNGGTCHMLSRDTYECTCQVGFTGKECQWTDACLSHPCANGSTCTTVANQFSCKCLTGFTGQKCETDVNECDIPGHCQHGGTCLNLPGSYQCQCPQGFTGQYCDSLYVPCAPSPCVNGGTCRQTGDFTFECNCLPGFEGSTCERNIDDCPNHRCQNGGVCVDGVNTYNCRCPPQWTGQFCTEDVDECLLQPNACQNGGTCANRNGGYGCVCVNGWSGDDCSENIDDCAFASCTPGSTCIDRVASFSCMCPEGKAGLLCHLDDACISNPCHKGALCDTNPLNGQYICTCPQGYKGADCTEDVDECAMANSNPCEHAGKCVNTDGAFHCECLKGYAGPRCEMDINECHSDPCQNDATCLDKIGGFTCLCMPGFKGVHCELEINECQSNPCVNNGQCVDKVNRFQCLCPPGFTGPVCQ

rhNotch3-Fc = target: T3, rhNotch3-Fc (human, UniProt Q9UM47 40-467); experiment: BLI (Octet QK), Notch-Fc on anti-human-Fc sensors
T3 construct: Bought protein; also called human Notch3 protein; R&D Cat. No. 1559-NT-050; not shown: Fc part
T3 sequence (looked up): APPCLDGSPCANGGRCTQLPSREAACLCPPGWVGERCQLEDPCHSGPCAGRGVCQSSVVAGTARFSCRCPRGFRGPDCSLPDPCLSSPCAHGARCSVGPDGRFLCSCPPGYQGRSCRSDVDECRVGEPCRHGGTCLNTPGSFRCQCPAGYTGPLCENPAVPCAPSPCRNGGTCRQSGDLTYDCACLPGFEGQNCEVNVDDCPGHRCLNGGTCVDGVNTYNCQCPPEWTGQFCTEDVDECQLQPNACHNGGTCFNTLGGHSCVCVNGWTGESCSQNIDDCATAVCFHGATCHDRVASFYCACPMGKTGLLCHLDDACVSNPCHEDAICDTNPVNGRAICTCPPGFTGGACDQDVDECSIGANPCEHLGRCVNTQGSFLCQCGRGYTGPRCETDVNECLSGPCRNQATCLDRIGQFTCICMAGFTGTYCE

[3] = target: T4, human Notch2 displayed on the surfaces of cells (human, UniProt Q04721 26-2471); experiment: electrochemiluminescence (Meso Scale Discovery) on CHO FlpIn cells
T4 construct: whole, on cells; also called human Notch2 on CHO FlpIn cells; Notch2-dependent reporter cells

[4] = target: T5, human Notch4 displayed on the surfaces of cells (human, UniProt Q99466 24-2003); experiment: as above
T5 construct: whole, on cells; also called human Notch4 on CHO FlpIn cells
T5 sequence (Q99466 24-2003): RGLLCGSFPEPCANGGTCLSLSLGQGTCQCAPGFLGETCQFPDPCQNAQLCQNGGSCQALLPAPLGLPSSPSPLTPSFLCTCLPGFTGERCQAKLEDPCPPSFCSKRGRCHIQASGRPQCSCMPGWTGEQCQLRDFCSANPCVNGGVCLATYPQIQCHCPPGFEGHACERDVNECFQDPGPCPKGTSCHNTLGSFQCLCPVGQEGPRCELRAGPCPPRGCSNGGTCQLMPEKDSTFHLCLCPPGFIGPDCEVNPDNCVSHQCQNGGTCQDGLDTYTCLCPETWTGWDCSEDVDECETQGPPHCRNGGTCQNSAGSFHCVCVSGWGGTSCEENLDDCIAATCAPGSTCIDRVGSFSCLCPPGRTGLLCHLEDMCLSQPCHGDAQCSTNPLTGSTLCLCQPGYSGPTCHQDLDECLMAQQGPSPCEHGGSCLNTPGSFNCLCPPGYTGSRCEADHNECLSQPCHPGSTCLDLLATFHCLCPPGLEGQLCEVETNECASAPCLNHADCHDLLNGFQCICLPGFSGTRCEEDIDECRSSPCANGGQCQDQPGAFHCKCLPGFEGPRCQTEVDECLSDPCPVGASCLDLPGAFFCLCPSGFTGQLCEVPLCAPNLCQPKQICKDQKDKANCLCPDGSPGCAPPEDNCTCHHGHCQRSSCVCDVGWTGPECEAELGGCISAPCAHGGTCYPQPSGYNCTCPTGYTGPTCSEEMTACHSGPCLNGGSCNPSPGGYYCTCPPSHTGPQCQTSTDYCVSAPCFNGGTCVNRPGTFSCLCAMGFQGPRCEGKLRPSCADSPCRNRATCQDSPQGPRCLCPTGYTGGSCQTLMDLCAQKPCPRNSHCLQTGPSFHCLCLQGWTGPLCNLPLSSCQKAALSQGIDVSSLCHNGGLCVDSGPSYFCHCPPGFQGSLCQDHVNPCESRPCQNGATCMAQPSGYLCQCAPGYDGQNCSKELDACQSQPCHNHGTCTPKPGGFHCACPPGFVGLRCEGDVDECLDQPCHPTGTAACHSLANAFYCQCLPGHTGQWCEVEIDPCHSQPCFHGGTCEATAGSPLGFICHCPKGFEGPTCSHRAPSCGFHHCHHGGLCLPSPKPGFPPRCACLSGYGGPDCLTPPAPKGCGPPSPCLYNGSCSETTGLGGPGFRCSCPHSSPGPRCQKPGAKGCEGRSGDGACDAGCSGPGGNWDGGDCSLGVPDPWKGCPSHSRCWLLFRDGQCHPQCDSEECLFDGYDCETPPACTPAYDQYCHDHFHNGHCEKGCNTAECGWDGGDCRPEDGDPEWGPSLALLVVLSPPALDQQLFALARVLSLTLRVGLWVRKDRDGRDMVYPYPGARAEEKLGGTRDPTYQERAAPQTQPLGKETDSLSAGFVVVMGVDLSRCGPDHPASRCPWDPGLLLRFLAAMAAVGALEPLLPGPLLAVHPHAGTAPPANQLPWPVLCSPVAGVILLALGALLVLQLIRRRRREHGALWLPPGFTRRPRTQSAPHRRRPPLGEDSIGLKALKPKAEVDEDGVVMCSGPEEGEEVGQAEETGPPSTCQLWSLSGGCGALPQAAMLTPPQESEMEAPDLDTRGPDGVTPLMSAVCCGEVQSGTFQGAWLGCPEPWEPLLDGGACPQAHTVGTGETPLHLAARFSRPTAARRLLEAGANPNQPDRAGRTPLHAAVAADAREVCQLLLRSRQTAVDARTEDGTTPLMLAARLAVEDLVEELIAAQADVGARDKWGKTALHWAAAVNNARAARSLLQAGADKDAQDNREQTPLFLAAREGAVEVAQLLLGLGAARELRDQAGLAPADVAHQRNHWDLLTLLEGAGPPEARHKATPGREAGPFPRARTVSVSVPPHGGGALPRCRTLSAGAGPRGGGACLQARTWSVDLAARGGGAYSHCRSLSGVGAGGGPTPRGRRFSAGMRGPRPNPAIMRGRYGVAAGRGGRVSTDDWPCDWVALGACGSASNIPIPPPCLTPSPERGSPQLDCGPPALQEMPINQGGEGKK

[5] = target: T6, human Notch3 displayed on the surfaces of cells (human, UniProt Q9UM47 40-2321); experiment: as above
T6 construct: whole, on cells; also called human Notch3 on CHO FlpIn cells; Notch3-dependent reporter cells

human Notch1 displayed on the surfaces of cells, sequence (P46531 19-2555): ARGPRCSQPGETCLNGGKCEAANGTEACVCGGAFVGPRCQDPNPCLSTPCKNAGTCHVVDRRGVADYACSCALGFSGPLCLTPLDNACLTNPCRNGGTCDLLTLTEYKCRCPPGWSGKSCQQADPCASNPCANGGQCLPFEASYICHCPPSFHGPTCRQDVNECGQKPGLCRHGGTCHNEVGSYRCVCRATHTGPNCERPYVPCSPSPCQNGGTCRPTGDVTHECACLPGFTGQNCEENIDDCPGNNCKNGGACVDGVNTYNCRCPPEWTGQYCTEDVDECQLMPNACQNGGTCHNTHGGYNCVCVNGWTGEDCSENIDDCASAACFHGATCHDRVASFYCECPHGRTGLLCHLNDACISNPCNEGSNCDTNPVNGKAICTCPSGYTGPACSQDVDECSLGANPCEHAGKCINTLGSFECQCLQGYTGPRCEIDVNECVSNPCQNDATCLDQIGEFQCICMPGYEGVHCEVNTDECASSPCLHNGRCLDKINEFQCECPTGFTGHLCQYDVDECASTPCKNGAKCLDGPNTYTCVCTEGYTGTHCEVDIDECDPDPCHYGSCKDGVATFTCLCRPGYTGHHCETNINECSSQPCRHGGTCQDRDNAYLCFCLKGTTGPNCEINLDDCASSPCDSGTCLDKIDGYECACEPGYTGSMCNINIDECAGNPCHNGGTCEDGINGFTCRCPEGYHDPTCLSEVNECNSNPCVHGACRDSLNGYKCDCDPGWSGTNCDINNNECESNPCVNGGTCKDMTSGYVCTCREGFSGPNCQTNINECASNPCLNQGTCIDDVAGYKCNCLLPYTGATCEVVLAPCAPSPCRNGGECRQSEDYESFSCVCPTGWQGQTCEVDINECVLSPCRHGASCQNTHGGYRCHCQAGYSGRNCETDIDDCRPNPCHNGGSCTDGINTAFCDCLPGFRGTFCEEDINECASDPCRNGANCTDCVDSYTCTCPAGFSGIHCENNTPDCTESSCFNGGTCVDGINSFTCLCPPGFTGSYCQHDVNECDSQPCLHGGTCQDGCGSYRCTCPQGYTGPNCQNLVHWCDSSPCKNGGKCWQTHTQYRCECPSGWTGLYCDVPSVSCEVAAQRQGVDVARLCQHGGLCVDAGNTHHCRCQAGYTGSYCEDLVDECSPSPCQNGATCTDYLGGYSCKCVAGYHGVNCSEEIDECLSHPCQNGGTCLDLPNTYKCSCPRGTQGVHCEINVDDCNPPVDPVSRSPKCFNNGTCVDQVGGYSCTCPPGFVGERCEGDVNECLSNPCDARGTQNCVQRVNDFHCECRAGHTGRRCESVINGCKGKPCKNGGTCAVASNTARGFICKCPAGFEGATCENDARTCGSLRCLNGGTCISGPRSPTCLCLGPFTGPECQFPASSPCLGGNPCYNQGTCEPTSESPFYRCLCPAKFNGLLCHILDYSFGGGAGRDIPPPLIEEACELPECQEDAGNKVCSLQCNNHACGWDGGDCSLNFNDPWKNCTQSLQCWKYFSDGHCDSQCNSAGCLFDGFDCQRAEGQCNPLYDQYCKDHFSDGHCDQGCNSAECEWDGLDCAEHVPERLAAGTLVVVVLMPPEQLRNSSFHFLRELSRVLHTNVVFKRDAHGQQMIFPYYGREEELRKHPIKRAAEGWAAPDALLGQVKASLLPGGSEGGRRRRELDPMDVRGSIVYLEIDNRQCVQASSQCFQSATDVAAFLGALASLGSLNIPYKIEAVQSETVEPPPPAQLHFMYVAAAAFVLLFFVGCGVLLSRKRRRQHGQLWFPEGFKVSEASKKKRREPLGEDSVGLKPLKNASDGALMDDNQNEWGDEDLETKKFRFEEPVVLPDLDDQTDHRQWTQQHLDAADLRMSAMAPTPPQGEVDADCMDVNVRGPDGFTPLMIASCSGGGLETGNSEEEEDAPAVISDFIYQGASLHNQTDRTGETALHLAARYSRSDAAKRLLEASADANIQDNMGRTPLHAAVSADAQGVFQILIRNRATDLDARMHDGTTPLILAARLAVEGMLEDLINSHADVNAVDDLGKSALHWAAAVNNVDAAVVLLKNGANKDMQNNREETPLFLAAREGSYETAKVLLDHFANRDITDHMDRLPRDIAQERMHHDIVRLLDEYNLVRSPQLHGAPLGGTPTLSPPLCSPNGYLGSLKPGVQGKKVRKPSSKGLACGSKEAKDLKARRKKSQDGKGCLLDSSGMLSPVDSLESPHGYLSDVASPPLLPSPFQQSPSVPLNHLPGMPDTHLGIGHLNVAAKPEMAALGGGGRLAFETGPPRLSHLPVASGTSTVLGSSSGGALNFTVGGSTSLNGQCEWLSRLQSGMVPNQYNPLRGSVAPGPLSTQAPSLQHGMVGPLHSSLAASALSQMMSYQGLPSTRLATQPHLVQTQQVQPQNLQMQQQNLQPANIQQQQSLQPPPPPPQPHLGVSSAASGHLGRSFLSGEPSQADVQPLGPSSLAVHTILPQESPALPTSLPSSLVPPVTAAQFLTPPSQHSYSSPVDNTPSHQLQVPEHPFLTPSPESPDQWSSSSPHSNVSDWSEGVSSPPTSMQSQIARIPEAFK

B1: antibody 2E6 (antibody, mouse IgG1, kappa, V domains shown)
VH: EVQLQQSGAELARPGASVKMSCKASGYTFTSYWMHWVKQRPGQGLEWIGAVYPRNNDTTYNQKFKGKAKLTAVTSASTAYMALSSLTNEDSAVYYCLYFNYNFDYWGQGTTLTVSS
VL: QIVLTQSPAIMSASPGEKVTMTCSASSSVSYMHWYQQKPGSSPRLLIYDTSNLASGVPVHFSGSGSGTSYSLTIIRMEAEDAATYYCQQWSSYPYTFGGGTKLEIKR
notes: Mouse monoclonal from hybridoma, IgG1 kappa; also called 2E06; mu2E6
B1 was tested, and the “EC50, Inhibition of Notch 1 Signaling, DLL1 (row printed 'DLI A')” value [1] was 0.2 nM, the “EC50, Inhibition of Notch 1 Signaling, DLL4 (row printed 'DLI A')” value [1] was 0.1 nM and the “EC50, Inhibition of Notch 1 Signaling, Jag 1” value [1] was 0.4 nM. The “EC50, Inhibition of Notch 1 Signaling, Jag 2” value [1] was 0.1 nM and the Kd [2] was at most 10 nM.

B2: antibody 2A11 (antibody, mouse IgG2b, kappa, V domains shown)
VH: QVQLQQSGPELVKPGASVKISCKASGYAFSSSWMNWVKQRPGKGLEWIGRIYPGDGDTNYNGKFKGKATLTADKSSSTAYMQLSSLTSEDSAVYFCARSGSIYYGNHGDYFDYWGQGTTLTVSS
VL: QIVLTQSPAIMSASPGEKVTMTCSASSSVSYMHWYQQKPGSSPRLLIYDTSNLASGVPVHFSGSGSGTSYSLTIIRMEAEDAATYYCQQWSSYPYTFGGGTKLEIKR
notes: Mouse monoclonal from hybridoma, IgG2b kappa
B2: no binding (tested: 50 μg/ml antibody) (rhNotch2-Fc); no binding (tested: 50 μg/ml antibody) (rhNotch3-Fc); no binding (tested: 5 μg/ml antibody) [3]. The binding result [4] was “no binding (tested: 5 μg/ml antibody)”, the binding result [5] was “no binding (tested: 5 μg/ml antibody)” and the Kd [2] was at most 10 nM.

B3: Hu2E6-62 (antibody, human IgG1, kappa, V domains shown)
VH: EVQLVQSGAEVAKPGASVKMSCKASGYTFTSYWMHWVKQAPGQGLEWIGAVYPRNNDATYNQKFKGKATLTADTSTSTAYMELRSLRSDDTAVYYCLYFNYNFDYWGQGTLLTVSS
VL: EIVLTQSPATMSASPGERVTMSCRASSSVSYMHWYQQKPGQSPRLLIYDTSNRASGVPAHFSGSGSGTDYTLTISSMEPEDFATYYCQQWSSYPYTFGQGTKLEIKR
B3 was tested, and the “EC50, Inhibition of Notch 1 Signaling, DLL1 (row printed 'DLI A')” value [1] was 0.1 nM, the “EC50, Inhibition of Notch 1 Signaling, DLL4 (row printed 'DLI A')” value [1] was 0.02 nM and the “EC50, Inhibition of Notch 1 Signaling, Jag 1” value [1] was 0.9 nM. For the same binder, the “EC50, Inhibition of Notch 1 Signaling, Jag 2” value [1] was 0.5 nM.

B4: antibody 2D11 (antibody, mouse IgG1, kappa, V domains shown)
VH: EVQLQQSGAELARPGASVKMSCKASGYTFTRYWMHWVKQRPGQGLEWIGAIYPGNSDTTYNQKFKGKAKLTAVTSASTAYMELSSLTNEDSAVYYCIYPYDYLDYWGQGTTLTVSS
VL: QIVLTQSPAIMSASPGEKVTMTCSASSSLSYMHWYQQKPGTSPKRWVYDTSKLASGVPARFSGSGSGTSYSLTISSMEAEDAATYYCHQRSSYPYTFGGGTKLEIKR
notes: Mouse monoclonal from hybridoma, IgG1 kappa
For B4, the Kd [2] was at most 10 nM.
